In patent US20240294895A1, “ENZYMATIC COMPOSITIONS FOR CARBOHYDRATE ANTIGEN CLEAVAGE ON DONOR ORGANS, METHODS AND USES ASSOCIATED THEREWITH” (THE UNIVERSITY OF BRITISH COLUMBIA, priority 2018, published 2024):

Assays:
Assay in all cases: Kinetic parameters of FpGalNAcDeAc full length (coupled fluorescence assay, MU release)
Type in all cases: biochemical, Flavonifractor plautii
Details in all cases: other: 100 mM NaH2PO4, pH 7.4, 37° C.
[1] = substrate: CC(=O)N[C@H]1[C@@H](O[C@H]2[C@@H](O)[C@@H](CO)O[C@@H](O[C@H]3[C@H](O)[C@@H](CO)O[C@@H](Oc4ccc5c(C)cc(=O)oc5c4)[C@@H]3NC(C)=O)[C@@H]2O[C@@H]2O[C@@H](C)[C@@H](O)[C@@H](O)[C@@H]2O)O[C@H](CO)[C@H](O)[C@@H]1O
Experimental: (§1) All kinetic assays utilizing 4-methylumbelliferone as leaving group were performed through measurement of fluorescence. To avoid measurement errors based on the inner filter effect (Palmier 2007) standard curves were used to validate the linear range of the fluorophore.
(§2) Michaelis-Menten parameters were determined for A antigen subtype 1penta-MU in 100 mM NaH2PO4, pH 7.4 at 37° C. using the coupled assays described previously (Kwan 2015). The assay was modified to allow detection of cleavage of the subtype 1 (and later 4), by use of BgaC (Jeong 2009) instead of BgaA (Singh 2014) as β-galactosidase. In addition, since A antigen subtype 1penta-MU contains an additional galactose, the concentration of BgaC was increased to 0.2 mg/mL to compensate for its need to cleave both the Gal-β-1,3-B-GlcNAc-β-1,3-Gal-β-MU and Gal-β-MU. Further, FpGalactosaminidase was included to allow the cleavage of the galactosamine-containing intermediate. Reaction setup in 100 μl was 3 nM FpGalNacDeacetylase (4.52 nM FpGalNacDeAc_D1ext, 3.55 nM FpGalNacDeAc_D1+2) and 0.01 mg/mL FpGalactosaminidase, 0.1 mg/mL SpHex, AfcA, 0.2 mg/mL BgaC and varying concentrations of substrate (5 μM-2.5 mM). The reactions were run as a series of four with controls (no FpGalNacDeacetylase) as duplicates. The fluorescence signal (365/435 nm) resulting from MU release by hydrolysis was monitored on a Synergy H1™ plate reader (BioTek™) and converted to concentration using MU standard concentration curves determined under identical reaction conditions. Initial rates (μM/s) were determined and plotted in Grafit 7.0 to determine the kinetic parameters.
(§3) kcat/KM parameter were determined for A antigen subtype 1/2/4tetra-MU at pH 7.4 at 37° C. Reactions (total volume of 100 μL) were performed in black 96-plate wells and as coupled assays in 100 mM NaH2PO4 (pH 7.4) with 12 nM FpGalNAcDeacetylase 0.1 mg/mL SpHex, BgaC (BgaA for subtype II), AfcA, at varying concentrations of substrate (25 μM, 20 μM, 15 μM, 10 μM, 7.5 μM, 5 μM). The reactions were run as a series of four with controls (no FpGalNAcDeacetylase) as duplicates. The fluorescence signal (365/435 nm) resulting from MU release by hydrolysis was monitored on a Synergy H1™ plate reader (BioTek™) and converted to concentration using MU standard concentration curves determined under identical reaction conditions. Initial rates (μM/s) were determined and plotted in Grafit™ 7.0 to determine the kcat/KM (s^−1*mM^−1) parameters.

[2] = substrate: CC(=O)N[C@H]1[C@@H](O[C@H]2[C@@H](O)[C@@H](CO)O[C@@H](O[C@H]3[C@H](O)[C@@H](CO)O[C@@H](O[C@H]4[C@@H](O)[C@@H](CO)O[C@@H](Oc5ccc6c(C)cc(=O)oc6c5)[C@@H]4O)[C@@H]3NC(C)=O)[C@@H]2O[C@@H]2O[C@@H](C)[C@@H](O)[C@@H](O)[C@@H]2O)O[C@H](CO)[C@H](O)[C@@H]1O
Experimental: as §1, §2, §3

[3] = substrate: CC(=O)N[C@H]1[C@@H](O[C@H]2[C@@H](O)[C@@H](CO)O[C@@H](O[C@H]3[C@@H](O)[C@@H](CO)O[C@@H](Oc4ccc5c(C)cc(=O)oc5c4)[C@@H]3NC(C)=O)[C@@H]2O[C@@H]2O[C@@H](C)[C@@H](O)[C@@H](O)[C@@H]2O)O[C@H](CO)[C@H](O)[C@@H]1O
Experimental: as §1, §2, §3

[4] = substrate: CC(=O)N[C@H]1[C@H](Oc2ccc3c(C)cc(=O)oc3c2)O[C@H](CO)[C@@H](O[C@@H]2O[C@H](CO)[C@H](O)[C@H](O[C@H]3O[C@H](CO)[C@H](O)[C@H](O)[C@H]3NC(C)=O)[C@H]2O[C@@H]2O[C@@H](C)[C@@H](O)[C@@H](O)[C@@H]2O)[C@@H]1O
Experimental: as §1, §2, §3

B1: Flavonifractor plautii GalNAcDeacetylase (FpGalNAcDeAc), full length, SEQ ID NO: 2, 4, 5 (Flavonifractor plautii) (protein)
chain: MGHHHHHHHHHHSSGADSSESALNKAPGYQDFPAYYSDSAHADDQVTHPDVVVLEEPWNGYRYWAVYTPNVMRISIYENPSIVASSDGVHWVEPEGLSNPIEPQPPSTRYHNCDADMVYNAEYDAMMAYWNWADDQGGGVGAEVRLRISYDGVHWGVPVTYDEMTRVWSKPTSDAERQVADGEDDFITAIASPDRYDMLSPTIVYDDFRDVFILWANNTGDVGYQNGQANFVEMRYSDDGITWGEPVRVNGFLGLDENGQQLAPWHQDVQYVPDLKEFVCISQCFAGRNPDGSVLHLTTSKDGVNWEQVGTKPLLSPGPDGSWDDFQIYRSSFYYEPGSSAGDGTMRVWYSALQKDTNNKMVADSSGNLTIQAKSEDDRIWRIGYAENSFVEMMRVLLDDPGYTTPALVSGNSLMLSAETTSLPTGDVMKLETSFAPVDTSDQVVKYTSSDPDVATVDEFGTITGVSVGSARIMAETREGLSDDLEIAVVENPYTLIPQSNMTATATSVYGGTTEGPASNVLDGNVRTIWHTNYAPKDELPQSITVSFDQPYTVGRFVYTPRQNGTNGIISEYELYAIHQDGSKDLVASGSDWALDAKDKTVSFAPVEAVGLELKAIAGAGGFGTAAELNVYAYGPIEPAPVYVPVDDRDASLVFTGAWNSDSNGSFYEGTARYTNEIGASVEFTFVGTAIRWYGQNDVNFGAAEVYVDGVLAGEVNVYGPAAAQQLLFEADGLAYGKHTIRIVCVSPVVDFDYFSYVGE
- kcat/Km [1]: 23.49 ± 0.63 s⁻¹ mM⁻¹
- Km [2]: 340 ± 35 µM
- kcat [2]: 4.86 s⁻¹
- kcat/Km [2]: 14.28 s⁻¹ mM⁻¹
- kcat/Km [3]: 33.27 ± 2.08 s⁻¹ mM⁻¹
- kcat/Km [4]: 23.37 ± 0.71 s⁻¹ mM⁻¹
